In patent publication US20190194347A1, “ANTIBODIES FOR EPIDERMAL GROWTH FACTOR RECEPTOR 3 (HER3)” (NOVARTIS AG, priority 2010, published 2019):
Substitutions are numbered along the chain they refer to.

B1: MOR09823 (antibody, V domains shown)
VH: QVQLVESGGGLVQPGGSLRLSCAASGFTFSSYAMSWVRQAPGKGLEWVSVTGAVGRTYYPDSVKGRFTISRDNSKNTLYLQMNSLRAEDTAVYYCARWGDEGFDIWGQGTLVTVSS
VL: DIQMTQSPSSLSASVGDRVTITCRASQGISNWLAWYQQKPGKAPKLLIYGASSLQSGVPSRFSGSGSGTDFTLTISSLQPEDFAVYYCQQYSSFPTTFGQGTKVEIKR
B2: MOR09825 (antibody, human IgG1, kappa, V domains shown)
VH: QVQLVESGGGLVQPGGSLRLSCAASGFTFSSYAMSWVRQAPGKGLEWVSAINSQGKSTYYADSVKGRFTISRDNSKNTLYLQMNSLRAEDTAVYYCARWGDEGFDIWGQGTLVTVSS
VL: B1 VL
B3: MOR10702 (antibody, human IgG1, kappa, V domains shown)
VH: B2 VH with Q1E, V5L, A50V, N52S, S53A, Q54W, K56H, S57V, T58K
VL: B1 VL with V85T
B4: MOR10703 (antibody, human IgG1, kappa, V domains shown)
VH: B2 VH with Q1E, V5L
VL: B1 VL with V85T
B5: MOR09974 (antibody, human IgG1, kappa, V domains shown)
VH: B2 VH with A50V, S53P, Q54S, K56N, S57F, Y59N
VL: B1 VL
B6: MOR09824 (antibody, human IgG1, kappa, V domains shown)
VH: B2 VH with A50V, N52S, S53A, Q54W, K56H, S57V, T58K
VL: B1 VL
B7: MOR10701 (antibody, human IgG1, kappa, V domains shown)
VH: B2 VH with Q1E, V5L, A50V, I51T, N52G, S53A, Q54V, K56R, A61P
VL: B1 VL with V85T

target: endogenous human HER3 on human cancer cells (SK-Br-3, MCF7, BT-474) (human, UniProt P21860 20-1342); test: cell-based or functional assay

Row | % inhibition of proliferation, BT-474, 10 µg/ml IgG | % inhibition of proliferation, MCF7 (neuregulin stimulated), 10 µg/ml IgG | % inhibition of proliferation, SK-Br-3, 10 µg/ml IgG | Binder
1 | 39.8% | 82% | 39% | B1
2 | 37.2% | 63% | 41% | B2
3 | 43.8% |  |  | B3
4 | 41.6% | 81% | 35% | B4
5 |  | 20% | 35% | B5
6 | 36.8% | 82% | 33% | B6
7 | 43.6% |  |  | B7

target: T1, HER3 K267A (CD33-[Human HER3, residues 20-640, K267A]-TAG) (human, UniProt P21860 20-640); test: ELISA titration on coated recombinant mutant HER3
T1 construct: also called HER3 K267A-Tag; not shown: C-terminal TAG (e.g., FLAG TAG)

Row | Binder | binding result
8 | B4 | no binding (tested: up to 10 µg/mL antibody (Example 7))

target: T2, HER3 L268A (CD33-[Human HER3, residues 20-640, L268A]-TAG) (human, UniProt P21860 20-640); test: ELISA titration on coated recombinant mutant HER3
T2 construct: also called HER3 L268A-Tag; not shown: C-terminal TAG (e.g., FLAG TAG)

Row | Binder | binding result
9 | B4 | no binding (tested: up to 10 µg/mL antibody (Example 7))
